{
  "source": "patent US20090082268A1",
  "about": "(GEYMONAT S P A, published 2009)",
  "binders": {"B1": {"name": "PlGF-1 mutein from Geymonat (recombinant human PLGF-1CG) (ligand)", "chain": "MLPAVPPQQWALSAGNGSSEVEVVPFQEVWGRSYCRALERLVDVVSEYPSEVEHMFSPSCVSLLRCTGCCGDENLHCVPVETANVTMQLLKIRSGDRPSYVELTFSQHVRCECRPLREKMKPERGGDAVPRR", "notes": "Described as 'a PlGF-1 mutein embodiment of the present invention'; also called Geymonat Mutein; Mutein Geymonat"}},
  "biological_target": "T1, human VEGFR-1/Fc (R&D Systems) (human, UniProt P17948 27-756, limits assumed)",
  "T1 construct": "Bought reagent, coated on the ELISA plate; also called receptor Flt-1; not shown: Fc part of the bought fusion",
  "T1 sequence (P17948 27-756 limits assumed)": "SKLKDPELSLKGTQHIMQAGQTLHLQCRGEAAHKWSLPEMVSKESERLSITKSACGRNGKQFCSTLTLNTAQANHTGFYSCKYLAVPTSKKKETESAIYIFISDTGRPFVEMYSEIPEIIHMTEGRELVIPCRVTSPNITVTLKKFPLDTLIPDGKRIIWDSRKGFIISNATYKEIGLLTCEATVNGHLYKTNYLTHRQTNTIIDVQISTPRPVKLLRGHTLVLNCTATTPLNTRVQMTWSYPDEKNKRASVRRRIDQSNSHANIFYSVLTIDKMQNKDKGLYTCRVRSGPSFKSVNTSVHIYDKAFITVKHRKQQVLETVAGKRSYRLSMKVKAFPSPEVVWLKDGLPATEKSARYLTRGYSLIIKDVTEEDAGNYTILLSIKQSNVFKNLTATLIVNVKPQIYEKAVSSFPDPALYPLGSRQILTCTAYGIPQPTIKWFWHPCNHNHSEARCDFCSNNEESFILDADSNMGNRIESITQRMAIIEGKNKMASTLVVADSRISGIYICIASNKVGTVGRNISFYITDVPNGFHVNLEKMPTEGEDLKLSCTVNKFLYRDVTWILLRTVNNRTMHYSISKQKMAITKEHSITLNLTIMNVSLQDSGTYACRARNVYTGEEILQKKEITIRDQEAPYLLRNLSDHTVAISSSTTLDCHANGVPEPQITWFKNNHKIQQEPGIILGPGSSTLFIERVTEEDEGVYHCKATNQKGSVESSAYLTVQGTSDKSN",
  "test": "ELISA: VEGFR-1/Fc coated, PlGF-1 diluted two-fold from 20 ng/ml, detected with biotinylated anti-human PlGF antibodies",
  "description": "To test receptor binding, an ELISA assay was performed according to the following protocol: [0141] 1. Well of 96-well microtiter plate were coated with 200 μl of 1 μg/ml human VEGFR-1/Fc (R&D Systems) and incubated overnight at 4° C. [0142] 2. Two-fold dilution series starting at 20 ng/ml of various preparations of recombinant human PlGF-1 were prepared and added in a volume of 100 μl per well. The plate was incubated for 2 hours at room temperature. [0143] 3. Bound PlGF-1 was captured with biotinylated anti-human PlGF antibodies (R&D Systems) added in a volume of 100 μl per well for 1 hour at room temperature. [0144] 4. A 1:200 dilution of horseradish peroxidase-conjugated streptavidin (R&D Systems) was added and incubated for 20 min. at room temperature. [0145] 5. Substrate solution (TMB from Pierce) was added and after 15 min. the reaction was quenched with 2 M sulfuric acid. [0146] 6. The absorbance was measured at 450 nm.",
  "data": [
    {"binder": "B1", "values": [
      {"measurement": "binding result", "value": "binds"}
    ]}
  ]
}
